Several values for one entry are separate records, joined by “and”; a condition that tells them apart may be missing. Equal values may be shown once. Read-outs that look alike come from different tables or passages of the source.
What was measured:
[1] = target: C. jejuni (strain 81-176) flagella (Campylobacter jejuni strain 81-176)
[2] = target: C. jejuni (strain 81-176) flagella (Campylobacter jejuni strain 81-176); assay: SPR (Biacore 3000), single-cycle kinetics, […]
[3] = target: C. jejuni (strain 81-176) flagella (Campylobacter jejuni strain 81-176); assay: ELISA on coated flagella, approximate affinity

| Binder | Kd [1] [nM] | koff [1] [s⁻¹] | kon [1] [M⁻¹ s⁻¹] | Kd [2] [nM] | koff [2] [s⁻¹] | kon [2] [M⁻¹ s⁻¹] | Kd [3] |
| --- | --- | --- | --- | --- | --- | --- | --- |
| FlagV6M (VHH) VHH: QVKLEESGGGLVQAGGSLRVSCTASVSTFSINALGWYRQAPGKARELVAAIGSDGTVYYTDSVKGRFTISRDNAKNTVSLQMSSLKPEDTAVYYCNAAGKRIGSDGSIWFAVASFGSWGQGTQVTVSS | 25 | 0.03 | 1e+06 |  |  |  |  |
| FlagV1M (VHH) VHH: QVKLEESGGGLVQAGGSRRLSCATSGLTFRNFHMAWFRQVAGKEREVVAAISWSRDRQYYPDPVKGRFTITRDNAKNTVYLQMNSLKPEDTAVYYCAARTASASGDWYKGSYQYWGQGTQVTVSS |  |  |  | 23.9 | 0.00563 | 236000 | 20 nM and 30 nM |
| FlagV1F23MDSB (VHH) VHH: QVQLVESGGGLVQAGGSRRLSCATSGLTFRNFHMAWFRQVAGKEREVVCAISWSRDRQYYPDPVKGRFTCTRDNAKNTVYLQMNSLKPEDTAVYYCAARTASASGDWYKGSYQYWGQGTQVTVSS |  |  |  | 17.3 | 0.00286 | 165000 |  |
| FlagV1MDSB (VHH) VHH: QVKLEESGGGLVQAGGSRRLSCATSGLTFRNFHMAWFRQVAGKEREVVCAISWSRDRQYYPDPVKGRFTCTRDNAKNTVYLQMNSLKPEDTAVYYCAARTASASGDWYKGSYQYWGQGTQVTVSS |  |  |  | 18.2 | 0.0028 | 153000 |  |
| FlagV1F23M (VHH) VHH: QVQLVESGGGLVQAGGSRRLSCATSGLTFRNFHMAWFRQVAGKEREVVAAISWSRDRQYYPDPVKGRFTITRDNAKNTVYLQMNSLKPEDTAVYYCAARTASASGDWYKGSYQYWGQGTQVTVSS |  |  |  | 18.6 | 0.00426 | 229000 |  |
